Reference: patent US20080214462

Molecular target: factor X (FX) (UniProt P00742)
Chain of UniProt P00742 (P00742 whole entry, looked up): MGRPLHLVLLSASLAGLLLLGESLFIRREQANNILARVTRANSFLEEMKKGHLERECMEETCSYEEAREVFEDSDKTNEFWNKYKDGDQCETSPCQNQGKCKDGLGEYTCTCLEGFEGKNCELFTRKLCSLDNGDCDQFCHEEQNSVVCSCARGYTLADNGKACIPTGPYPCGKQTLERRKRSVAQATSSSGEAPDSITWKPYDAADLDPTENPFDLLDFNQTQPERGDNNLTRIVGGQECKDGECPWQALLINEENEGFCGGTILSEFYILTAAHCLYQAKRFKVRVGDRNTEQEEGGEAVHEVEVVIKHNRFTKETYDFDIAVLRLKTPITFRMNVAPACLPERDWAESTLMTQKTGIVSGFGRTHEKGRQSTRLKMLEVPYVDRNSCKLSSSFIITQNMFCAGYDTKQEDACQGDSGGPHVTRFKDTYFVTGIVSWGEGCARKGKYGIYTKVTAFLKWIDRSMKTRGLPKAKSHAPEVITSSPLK

Q: activated plasma derived FIX (pdFIXa) was tested. Which aPTT in FIX-depleted plasma: pdFIXa equivalent activity given for 0.5 µg/mL of FIXa protein did it give?
A: The aPTT in FIX-depleted plasma: pdFIXa equivalent activity given for 0.5 µg/mL of FIXa protein was 1.1 µg/mL.
